Data published in PMC5216119, “An allosteric conduit facilitates dynamic multisite substrate recognition by the SCF^Cdc4 ubiquitin ligase” (Nature Communications, 2017).
Where two headings read alike, the source gives them in different places. Square brackets hold non-standard residues; d marks the D form. Ends that are not written are not given here. Peptide text beside a SMILES is read from it. pT = C[C@@H](OP(=O)(O)O)[C@H](N)C(=O)O; pS = N[C@@H](COP(=O)(O)O)C(=O)O

What was measured:
[1] = biological target: Cdc4 (Saccharomyces cerevisiae) (UniProt P07834); conditions: cited from earlier work
[2] = biological target: Cdc4-Skp1 (Saccharomyces cerevisiae) (UniProt P07834); assay: intrinsic Trp fluorescence; conditions: cited from earlier work
[3] = biological target: Cdc4 (Saccharomyces cerevisiae) (UniProt P07834); conditions: cited from earlier work; remark: listed apart in the source
[4] = biological target: Cdc4 (Saccharomyces cerevisiae) (UniProt P07834); conditions: cited from earlier work; remark: listed apart in the source
[5] = biological target: Cdc4 (Saccharomyces cerevisiae) (UniProt P07834); conditions: cited from earlier work; remark: listed apart in the source
[6] = biological target: Cdc4 (Saccharomyces cerevisiae) (UniProt P07834); conditions: cited from earlier work; remark: listed apart in the source
[7] = biological target: fluorescein-labelled Ash1^18pT286/pT290/pS294 peptide (yeast); assay: fluorescence polarisation; 10 nM fluorescein-labelled peptide with increasing concentrations of the recombinant Skp1-Cdc4 complex; 10 mM HEPES pH 7.5, 40 mM NaCl, 0.1 mg/ml BSA, 1 mM DTT
[8] = biological target: fluorescein-labelled Ash1^18pT290/pS294 peptide (yeast); assay: as above
[9] = biological target: fluorescein-labelled Ash1^18pT286/pT290 peptide (yeast); assay: as above
[10] = biological target: Cdc4 (Saccharomyces cerevisiae) (UniProt P07834); conditions: cited from earlier work; remark: listed apart in the source
Skp1-Cdc4 complex = Skp1-Cdc4 complex (Saccharomyces cerevisiae, UniProt P07834+P52286); assay: Fluorescence polarization binding of fluorescein-labelled Ash1 peptides to Skp1-Cdc4; set-up: species or system yeast; conditions: 10 nM fluorescein-labelled peptide, increasing recombinant Skp1-Cdc4 complex; 10 mM HEPES pH 7.5, 40 mM NaCl, 0.1 mg ml^−1 BSA, 1 mM DTT; ex 485 / em 535 nm; read-out: Kd (μM) from fluorescence polarization
From the text: Figure 6 NMR titration of IM-labelled Cdc4^WD40 with Ash1 peptides. (a) Combined ^1H and ^13C chemical shifts of Cdc4^WD40 on binding of Ash1 peptides, with pT286 peptide in red, pT290 peptide in green, pS294 peptide in yellow, and the peptide phosphorylated on all three CPDs in blue. Assigned Ile and Met residues are labelled with residue number. Chemical shifts for the two bound states in titration with pT286 and triply phosphorylated peptides are reported on the same bars with stripes or without stripes. […] (f) Fluorescence polarization of the fluorescein-labelled Ash1 peptides (circle, pT286/pT290/pS294, square, pT286/pT290, triangle, pT290/pS294, inverted triangle doubly phosphorylated CycE peptide) in the presence of increasing concentrations of the recombinant Skp1-Cdc4 complex (mP, millipolarization unit). (g) Fluorescence polarization of the fluorescein-labelled Ash1 peptides (circle, pT286/pT290/pS294, square, pT286/pT290, triangle, pT290/pS294, inverted triangle, doubly phosphorylated CycE peptide) in the presence of increasing concentrations of the SCF-I2 inhibitor.
Fluorescence polarization assays containing 0.21 μM Skp1-Cdc4 complex and 10 nM fluorescently labelled cyclin E-derived or Ash1-derived phosphopeptides in 10 mM HEPES (pH 7.5), 40 mM NaCl, 0.1 mg ml^−1 BSA and 1 mM DTT in a final volume of 23.5 μl per well were performed on an Analyst HT plate reader (Molecular Devices Corp., Sunnyvale CA). Samples were excited at 485 nm and emission was read at 535 nm (ref. [26]).

[11] = biological target: Cdc4 (Saccharomyces cerevisiae) (UniProt P07834); conditions: cited from earlier work; remark: listed apart in the source
[12] = biological target: Cdc4 (Saccharomyces cerevisiae) (UniProt P07834); conditions: cited from earlier work; remark: listed apart in the source
R664Q Cdc4^WD40 = biological target: T1, R664Q Cdc4^WD40 (yeast, UniProt P07834 367-744, R664Q); assay: other fluorescence titration; intrinsic Trp fluorescence (excitation 298 nm, emission 366 nm); 0.5 μM Cdc4, ligand titrated; 50 mM Tris, 150 mM NaCl, 5 mM DTT, pH 7.5, 20 °C; 1:1 stoichiometry assumed; conditions: both partners purified
T1 construct: Cdc4, yeast F-box protein, WD40 domain, residues 367-744, with Arg664Gln in the allosteric pocket; also called Arg664Gln Cdc4^WD40; mutant (Arg664Gln) Cdc4^WD40; source: E. coli, purified as the wild type (Ni-NTA, Ulp protease, Ni-NTA, Superdex 200)
T1 sequence (looked up): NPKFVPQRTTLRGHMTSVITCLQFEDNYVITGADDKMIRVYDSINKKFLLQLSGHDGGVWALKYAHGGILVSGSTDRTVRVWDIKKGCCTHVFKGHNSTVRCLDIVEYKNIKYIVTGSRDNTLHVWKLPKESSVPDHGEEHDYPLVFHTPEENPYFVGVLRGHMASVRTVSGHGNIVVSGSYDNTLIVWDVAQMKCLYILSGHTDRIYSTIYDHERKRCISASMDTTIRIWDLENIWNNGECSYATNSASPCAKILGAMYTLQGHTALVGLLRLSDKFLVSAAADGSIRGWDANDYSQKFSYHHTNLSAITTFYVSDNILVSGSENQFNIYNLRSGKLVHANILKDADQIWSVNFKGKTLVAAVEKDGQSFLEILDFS

[13] = biological target: T2, Cdc4^WD40 (isolated WD40 domain of the yeast F-box protein Cdc4, residues 367-744), wild type (yeast, UniProt P07834 367-744); assay: as above; conditions: both partners purified
T2 construct: Cdc4, yeast F-box protein, WD40 domain, residues 367-744; For the NMR experiments the protein was U-[15N,2H], Ile-delta1-[13CH3], Met-epsilon-[13CH3] labelled (IM-labelled); also called wt Cdc4^WD40; Cdc4 WD40 domain; source: E. coli BL21(DE3) codonPlus, purified (Ni-NTA, Ulp protease, Ni-NTA, Superdex 200)
T2 sequence (looked up): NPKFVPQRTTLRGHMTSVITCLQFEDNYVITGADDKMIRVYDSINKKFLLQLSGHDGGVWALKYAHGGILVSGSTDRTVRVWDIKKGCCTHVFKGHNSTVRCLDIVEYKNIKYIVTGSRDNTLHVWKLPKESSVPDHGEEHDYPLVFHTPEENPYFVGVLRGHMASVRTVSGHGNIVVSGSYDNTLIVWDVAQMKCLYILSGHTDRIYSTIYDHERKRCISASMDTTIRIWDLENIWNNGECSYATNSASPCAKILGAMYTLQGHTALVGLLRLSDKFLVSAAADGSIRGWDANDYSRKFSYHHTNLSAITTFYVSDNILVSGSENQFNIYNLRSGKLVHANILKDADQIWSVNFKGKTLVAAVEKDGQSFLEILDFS

Cdc4 (Saccharomyces cerevisiae), sequence (P07834 whole entry): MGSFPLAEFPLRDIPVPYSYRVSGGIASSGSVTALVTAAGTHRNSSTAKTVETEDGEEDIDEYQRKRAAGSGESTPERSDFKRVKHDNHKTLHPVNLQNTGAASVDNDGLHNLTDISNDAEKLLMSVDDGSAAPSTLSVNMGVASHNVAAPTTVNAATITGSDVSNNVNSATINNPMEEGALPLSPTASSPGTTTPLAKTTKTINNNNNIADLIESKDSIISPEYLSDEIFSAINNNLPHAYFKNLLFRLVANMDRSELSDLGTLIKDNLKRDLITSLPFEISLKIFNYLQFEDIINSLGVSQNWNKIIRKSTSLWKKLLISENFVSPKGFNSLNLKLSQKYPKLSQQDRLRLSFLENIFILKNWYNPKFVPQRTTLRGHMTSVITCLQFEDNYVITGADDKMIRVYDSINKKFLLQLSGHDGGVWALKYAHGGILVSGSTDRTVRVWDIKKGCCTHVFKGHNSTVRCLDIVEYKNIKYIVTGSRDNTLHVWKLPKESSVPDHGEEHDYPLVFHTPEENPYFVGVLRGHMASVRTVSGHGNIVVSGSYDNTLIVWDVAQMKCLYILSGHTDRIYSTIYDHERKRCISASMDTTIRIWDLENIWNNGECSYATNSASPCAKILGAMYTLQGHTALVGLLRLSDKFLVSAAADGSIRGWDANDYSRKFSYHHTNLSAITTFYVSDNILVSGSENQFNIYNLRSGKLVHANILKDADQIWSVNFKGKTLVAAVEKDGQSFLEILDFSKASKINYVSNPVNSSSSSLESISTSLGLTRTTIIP
Skp1-Cdc4 complex, sequence (P07834 whole entry): as above
Skp1-Cdc4 complex, sequence (P52286 whole entry partner): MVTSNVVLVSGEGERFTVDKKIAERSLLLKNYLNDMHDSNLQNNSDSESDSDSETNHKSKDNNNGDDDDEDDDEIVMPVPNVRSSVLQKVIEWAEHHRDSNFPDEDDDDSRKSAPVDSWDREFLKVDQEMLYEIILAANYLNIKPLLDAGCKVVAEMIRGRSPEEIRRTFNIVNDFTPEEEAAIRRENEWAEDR
Cdc4-Skp1 (Saccharomyces cerevisiae), sequence (P07834 whole entry, chain 1 of 2): as the sequence (P07834 whole entry) above
Cdc4-Skp1 (Saccharomyces cerevisiae), sequence (P52286 2-194, chain 2 of 2, further chain): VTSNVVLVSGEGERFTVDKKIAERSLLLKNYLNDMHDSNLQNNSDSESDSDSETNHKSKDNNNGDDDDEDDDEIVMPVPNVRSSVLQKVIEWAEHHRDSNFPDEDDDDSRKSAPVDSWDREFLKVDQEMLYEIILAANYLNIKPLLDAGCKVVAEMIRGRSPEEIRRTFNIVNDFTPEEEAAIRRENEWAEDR
pSic1 1-90, sequence (P38634 1-90): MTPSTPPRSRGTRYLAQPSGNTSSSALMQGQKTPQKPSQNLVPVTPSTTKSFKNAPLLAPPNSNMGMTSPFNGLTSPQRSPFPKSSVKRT
Sic1, sequence (P38634 whole entry): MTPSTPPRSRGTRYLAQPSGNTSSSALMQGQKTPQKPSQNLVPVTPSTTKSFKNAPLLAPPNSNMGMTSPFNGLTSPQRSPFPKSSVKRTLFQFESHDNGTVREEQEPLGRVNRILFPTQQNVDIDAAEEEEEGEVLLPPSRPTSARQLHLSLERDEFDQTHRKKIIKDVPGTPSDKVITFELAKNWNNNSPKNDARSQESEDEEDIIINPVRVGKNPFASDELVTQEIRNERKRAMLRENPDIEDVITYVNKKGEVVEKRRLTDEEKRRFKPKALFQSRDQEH
pSic1, sequence (P38634 whole entry): as above
Ash1 pT286 peptide, sequence (P34233 whole entry): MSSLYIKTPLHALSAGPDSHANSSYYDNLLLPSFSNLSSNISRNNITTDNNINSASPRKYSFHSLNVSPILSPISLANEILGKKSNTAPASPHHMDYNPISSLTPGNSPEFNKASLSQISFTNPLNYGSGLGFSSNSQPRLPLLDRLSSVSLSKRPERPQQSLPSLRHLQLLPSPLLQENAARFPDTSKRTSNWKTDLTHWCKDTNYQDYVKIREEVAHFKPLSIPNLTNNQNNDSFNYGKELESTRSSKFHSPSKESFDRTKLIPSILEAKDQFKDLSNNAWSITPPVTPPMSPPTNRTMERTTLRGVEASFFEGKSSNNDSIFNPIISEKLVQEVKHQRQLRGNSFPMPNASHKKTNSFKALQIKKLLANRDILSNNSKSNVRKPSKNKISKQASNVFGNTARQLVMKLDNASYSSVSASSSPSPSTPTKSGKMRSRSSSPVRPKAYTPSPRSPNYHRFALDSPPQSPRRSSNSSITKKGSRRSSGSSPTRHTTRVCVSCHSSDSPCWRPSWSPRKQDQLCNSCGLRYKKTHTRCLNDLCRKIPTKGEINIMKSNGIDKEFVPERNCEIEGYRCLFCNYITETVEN
Ash1 pT290 peptide, sequence (P34233 whole entry): as above
Ash1 pS294 peptide, sequence (P34233 whole entry): as above

Question: Which Kd [1] does the source give for “Ash1 pThr290 phosphopeptide 283-299 (from UniProt P34233)” here?
Answer: 4100 nM

Question: Which Kd [2] does the source give for pSic1 (from UniProt P38634) here?
Answer: 600 nM

Question: Which Kd [3] does the source give for “Ash1 triphosphorylated peptide 283-299 (from UniProt P34233)” here?
Answer: 70 nM

Question: With “Ash1 pS294 peptide (from UniProt P34233)” as the molecule, how does the Kd [4] read?
Answer: 6500 nM

Question: With Sic1 (from UniProt P38634) as the molecule, how does the Kd [5] read?
Answer: 1000 nM

Question: With “Ash1 pT290 peptide (from UniProt P34233)” as the molecule, how does the Kd [6] read?
Answer: 4100 nM

Question: With “recombinant Skp1-Cdc4 complex (from UniProt P07834 1-779; P52286 1-194)” as the molecule, how does the Kd [7] read?
Answer: 46 nM

Question: And the Kd [8]?
Answer: 82 nM

Question: What about the Kd [9] of the same molecule?
Answer: 69 nM

Question: Which Kd [10] does the source give for “Ash1 pSer294 phosphopeptide 283-299 (from UniProt P34233)” here?
Answer: 6500 nM

Question: For `CC[C@H](C)[C@H](NC(=O)[C@H](CO)NC(=O)[C@H](Cc1c[nH]c2ccccc12)NC(=O)[C@H](C)N)C(=O)N[C@H](C(=O)N1CCC[C@H]1C(=O)N1CCC[C@H]1C(=O)N[C@H](C(=O)N[C@H](C(=O)N1CCC[C@H]1C(=O)N1CCC[C@H]1C(=O)N[C@@H](CCSC)C(=O)N[C@@H](COP(=O)(O)O)C(=O)N1CCC[C@H]1C(=O)N1CCC[C@H]1C(=O)N[C@H](C(=O)N[C@@H](CC(N)=O)C(=O)N[C@@H](CCCNC(=N)N)C(=O)O)[C@@H](C)O)[C@@H](C)OP(=O)(O)O)C(C)C)[C@@H](C)OP(=O)(O)O` [AWSIpTPPVpTPPMpSPPTNR] (H-AWSI[pT]PPV[pT]PPM[pS]PPTNR-OH), which Kd (Skp1-Cdc4 complex) is on record?
Answer: 0.046 µM

Question: With “Ash1 pThr286 phosphopeptide 283-299 (from UniProt P34233)” as the molecule, how does the Kd [11] read?
Answer: 900 nM

Question: For “Ash1 pT286 peptide (from UniProt P34233)”, which Kd [12] is on record?
Answer: 900 nM

Question: For pSic1 1-90 (from UniProt P38634), which Kd [2] is on record?
Answer: 600 nM

Question: With `CC[C@H](C)[C@H](NC(=O)[C@H](CO)NC(=O)[C@H](Cc1c[nH]c2ccccc12)NC(=O)[C@H](C)N)C(=O)N[C@H](C(=O)N1CCC[C@H]1C(=O)N1CCC[C@H]1C(=O)N[C@H](C(=O)N[C@H](C(=O)N1CCC[C@H]1C(=O)N1CCC[C@H]1C(=O)N[C@@H](CCSC)C(=O)N[C@@H](COP(=O)(O)O)C(=O)N1CCC[C@H]1C(=O)N1CCC[C@H]1C(=O)N[C@H](C(=O)N[C@@H](CC(N)=O)C(=O)N[C@@H](CCCNC(=N)N)C(=O)O)[C@@H](C)O)[C@@H](C)OP(=O)(O)O)C(C)C)[C@@H](C)O` [AWSITPPVpTPPMpSPPTNR] (H-AWSITPPV[pT]PPM[pS]PPTNR-OH) as the molecule, how does the Kd (Skp1-Cdc4 complex) read?
Answer: 0.082 µM

Question: With `CC[C@H](C)[C@H](NC(=O)[C@H](CO)NC(=O)[C@H](Cc1c[nH]c2ccccc12)NC(=O)[C@H](C)N)C(=O)N[C@H](C(=O)N1CCC[C@H]1C(=O)N1CCC[C@H]1C(=O)N[C@H](C(=O)N[C@H](C(=O)N1CCC[C@H]1C(=O)N1CCC[C@H]1C(=O)N[C@@H](CCSC)C(=O)N[C@@H](CO)C(=O)N1CCC[C@H]1C(=O)N1CCC[C@H]1C(=O)N[C@H](C(=O)N[C@@H](CC(N)=O)C(=O)N[C@@H](CCCNC(=N)N)C(=O)O)[C@@H](C)O)[C@@H](C)OP(=O)(O)O)C(C)C)[C@@H](C)OP(=O)(O)O` [AWSIpTPPVpTPPMSPPTNR] (H-AWSI[pT]PPV[pT]PPMSPPTNR-OH) as the molecule, how does the Kd (Skp1-Cdc4 complex) read?
Answer: 0.069 µM

Question: For GMT[pS]PFNGLTSPQRSPFPKS [Sic1^20pS69 phosphopeptide], which Ka (R664Q Cdc4^WD40) is on record?
Answer: 51400 M⁻¹

Question: And the Kd (R664Q Cdc4^WD40)?
Answer: 19500 nM

Question: What about the Ka [13] of the same molecule?
Answer: 97600 M⁻¹

Question: What about the Kd [13] of the same molecule?
Answer: 10300 nM

Question: Which Ka (R664Q Cdc4^WD40) does the source give for GMT[pS]PFNGLTSPQR[pS]PFPKS [Sic1^20pS69/pS80 phosphopeptide] here?
Answer: 267000 M⁻¹

Question: And the Kd (R664Q Cdc4^WD40)?
Answer: 3740 nM

Question: What about the Ka [13] of the same molecule?
Answer: 142000 M⁻¹

Question: And the Kd [13]?
Answer: 7060 nM

Question: With GMTSPFNGLTSPQR[pS]PFPKS [Sic1^20pS80 phosphopeptide] as the molecule, how does the Ka (R664Q Cdc4^WD40) read?
Answer: 104000 M⁻¹

Question: And the Kd (R664Q Cdc4^WD40)?
Answer: 9580 nM

Question: And the Ka [13]?
Answer: 110000 M⁻¹

Question: And the Kd [13]?
Answer: 9130 nM
